This note sets out measurements from the supplement of paper PMC5998384.

Series [1] concerns HeLa Kyoto. Briefly: solubility in G1/S (NP-40 vs SDS abundance) (log2 ratio); higher = more soluble. The note with it: cell cycle stage: G1/S.
For series [2], the system named is HeLa Kyoto. Briefly: melting temperature (median over replicates), in situ; higher = more thermally stable.
Series [3] relates to HeLa Kyoto. Briefly: solubility change mitosis vs G1/S (difference of NP-40 vs SDS log2 ratios) (log2 ratio difference); higher = more soluble in mitosis.
Series [4] deals with HeLa Kyoto. Briefly: thermal stability score vs G1/S (z-score of summed log2 fold changes over temperatures); higher = more thermally stable than in G1/S.
Setting [5] is: cell cycle stage: early G1 (4.5 h after nocodazole release).
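Throughout, for melting temperature (median over replicates), in situ: HeLa Kyoto cells synchronized by double thymidine or nocodazole block, proteins quantified by TMT10plex mass spectrometry, three independent biological replicates.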
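Throughout, for solubility change mitosis vs G1/S (difference of NP-40 vs SDS log2 ratios): synchronized HeLa Kyoto cells (double thymidine block for G1/S, nocodazole release for mitosis), protein amounts in NP-40 versus SDS lysates quantified by mass spectrometry, three biological replicates.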
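Throughout, for solubility in G1/S (NP-40 vs SDS abundance): HeLa Kyoto cells arrested at G1/S by double thymidine block, proteins quantified by TMT10plex mass spectrometry in mild NP-40 versus SDS extracts, three biological replicates.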
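Throughout, for thermal stability score vs G1/S (z-score of summed log2 fold changes over temperatures): synchronized HeLa Kyoto cells, proteins quantified by TMT10plex mass spectrometry, three biological replicates, mitosis taken 0.5 h after nocodazole release, G1/S directly after double thymidine block.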

Chain of CTDSPL2 (chain, as listed by the source): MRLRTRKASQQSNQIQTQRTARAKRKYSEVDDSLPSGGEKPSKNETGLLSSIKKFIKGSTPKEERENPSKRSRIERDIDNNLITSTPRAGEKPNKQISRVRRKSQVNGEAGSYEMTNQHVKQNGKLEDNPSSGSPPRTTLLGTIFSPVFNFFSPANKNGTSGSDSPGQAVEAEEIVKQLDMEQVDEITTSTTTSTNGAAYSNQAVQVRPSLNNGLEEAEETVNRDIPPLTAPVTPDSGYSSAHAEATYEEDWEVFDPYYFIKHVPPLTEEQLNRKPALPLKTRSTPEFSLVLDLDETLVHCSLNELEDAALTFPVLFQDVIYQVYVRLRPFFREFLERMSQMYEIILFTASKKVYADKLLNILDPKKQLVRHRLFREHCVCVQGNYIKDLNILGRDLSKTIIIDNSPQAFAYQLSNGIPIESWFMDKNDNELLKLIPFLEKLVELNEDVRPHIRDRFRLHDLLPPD

In the case of CTDSPL2, the “solubility in G1/S (log2)” value in the series with HeLa Kyoto [1] was -0.599. The melting temperature in the series with HeLa Kyoto [2] (cell cycle stage: G1/S) was 48.4 °C; in the series with HeLa Kyoto [2] (cell cycle stage: mitosis), 48.7 °C. The “solubility change mitosis (log2)” value in the series with HeLa Kyoto [3] worked out at 0.46. Besides, the thermal stability score with HeLa Kyoto [4] (setting [5]) was 2.66; in the series with HeLa Kyoto [4] (cell cycle stage: mitosis) it was 4.58.

“MAIQFRSLFPLALPGMLALLGWWWFFSRKKGHVSSHDEQQVEAGAVQLRADPAIKEPLPVEDVCPKVVSTPPSVTEPPEKELSTVSKLPAEPPALLQTHPPCRRSESSGILPNTTDMRLRPGTRRDDSTKLELALTGGEAKSIPLECPLSSPKGVLFSSKSAEVCKQDSPFSRVPRKVQPGYPVVPAEKRSSGERARETGGAEGTGDAVLGEKVLEEALLSREHVLELENSKGPSLASLEGEEDKGKSSSSQVVGPVQEEEYVAEKLPSRFIESAHTELAKDDAAPAPPVADAKAQDRGVEGELGNEESLDRNEEGLDRNEEGLDRNEESLDRNEEGLDRNEEIKRAAFQIISQVISEATEQVLATTVGKVAGRVCQASQLQGQKEESCVPVHQKTVLGPDTAEPATAEAAVAPPDAGLPLPGLPAEGSPPPKTYVSCLKSLLSSPTKDSKPNISAHHISLASCLALTTPSEELPDRAGILVEDATCVTCMSDSSQSVPLVASPGHCSDSFSTSGLEDSCTETSSSPRDKAITPPLPESTVPFSNGVLKGELSDLGAEDGWTMDAEADHSGGSDRNSMDSVDSCCSLKKTESFQNAQAGSNPKKVDLIIWEIEVPKHLVGRLIGKQGRYVSFLKQTSGAKIYISTLPYTQSVQICHIEGSQHHVDKALNLIGKKFKELNLTNIYAPPLPSLALPSLPMTSWLMLPDGITVEVIVVNQVNAGHLFVQQHTHPTFHALRSLDQQMYLCYSQPGIPTLPTPVEITVICAAPGADGAWWRAQVVASYEETNEVEIRYVDYGGYKRVKVDVLRQIRSDFVTLPFQGAEVLLDSVMPLSDDDQFSPEADAAMSEMTGNTALLAQVTSYSPTGLPLIQLWSVVGDEVVLINRSLVERGLAQWVDSYYTSL [AKAP1]”: the “solubility in G1/S (log2)” value in the series with HeLa Kyoto [1] was -0.0583. Further, the melting temperature in the series on HeLa Kyoto [2] (cell cycle stage: G1/S) was found to be 50.3 °C; in the series with HeLa Kyoto [2] (cell cycle stage: mitosis), 50.6 °C. Also, in the series with HeLa Kyoto [3], the “solubility change mitosis (log2)” value was -0.0592. For the same substance, the thermal stability score in the series with HeLa Kyoto [4] (setting [5]) came to 0.769; in the series on HeLa Kyoto [4] (cell cycle stage: mitosis), 1.64.

Consider “MRPRKAFLLLLLLGLVQLLAVAGAEGPDEDSSNRENAIEDEEEEEEEDDDEEEDDLEVKEENGVLVLNDANFDNFVADKDTVLLEFYAPWCGHCKQFAPEYEKIANILKDKDPPIPVAKIDATSASVLASRFDVSGYPTIKILKKGQAVDYEGSRTQEEIVAKVREVSQPDWTPPPEVTLVLTKENFDEVVNDADIILVEFYAPWCGHCKKLAPEYEKAAKELSKRSPPIPLAKVDATAETDLAKRFDVSGYPTLKIFRKGRPYDYNGPREKYGIVDYMIEQSGPPSKEILTLKQVQEFLKDGDDVIIIGVFKGESDPAYQQYQDAANNLREDYKFHHTFSTEIAKFLKVSQGQLVVMQPEKFQSKYEPRSHMMDVQGSTQDSAIKDFVLKYALPLVGHRKVSNDAKRYTRRPLVVVYYSVDFSFDYRAATQFWRSKVLEVAKDFPEYTFAIADEEDYAGEVKDLGLSESGEDVNAAILDESGKKFAMEPEEFDSDTLREFVTAFKKGKLKPVIKSQPVPKNNKGPVKVVVGKTFDSIVMDPKKDVLIEFYAPWCGHCKQLEPVYNSLAKKYKGQKGLVIAKMDATANDVPSDRYKVEGFPTIYFAPSGDKKNPVKFEGGDRDLEHLSKFIEEHATKLSRTKEEL [PDIA4]”, for which the “solubility in G1/S (log2)” value in the series with HeLa Kyoto [1] was 0.264. The melting temperature turned out to be 53.9 °C in the series with HeLa Kyoto [2] (cell cycle stage: G1/S) and 54.4 °C with HeLa Kyoto [2] (cell cycle stage: mitosis). Also, the “solubility change mitosis (log2)” value in the series on HeLa Kyoto [3] is -0.0655. The thermal stability score came to 3.99 in the series on HeLa Kyoto [4] (setting [5]) and 4.66 with HeLa Kyoto [4] (cell cycle stage: mitosis).

With “MFPAAPSPRTPGTGSRRGPLAGLGPGSTPRTASRKGLPLGSAVSSPVLFSPVGRRSSLSSRGTPTRMFPHHSITESVNYDVKTFGSSLPVKVMEALTLAEVDDQLTINIDEGGWACLVCKEKLIIWKIALSPITKLSVCKELQLPPSDFHWSADLVALSYSSPSGEAHSTQAVAVMVATREGSIRYWPSLAGEDTYTEAFVDSGGDKTYSFLTAVQGGSFILSSSGSQLIRLIPESSGKIHQHILPQGQGMLSGIGRKVSSLFGILSPSSDLTLSSVLWDRERSSFYSLTSSNISKWELDDSSEKHAYSWDINRALKENITDAIWGSESNYEAIKEGVNIRYLDLKQNCDGLVILAAAWHSADNPCLIYYSLITIEDNGCQMSDAVTVEVTQYNPPFQSEDLILCQLTVPNFSNQTAYLYNESAVYVCSTGTGKFSLPQEKIVFNAQGDSVLGAGACGGVPIIFSRNSGLVSITSRENVSILAEDLEGSLASSVAGPNSESMIFETTTKNETIAQEDKIKLLKAAFLQYCRKDLGHAQMVVDELFSSHSDLDSDSELDRAVTQISVDLMDDYPASDPRWAESVPEEAPGFSNTSLIILHQLEDKMKAHSFLMDFIHQVGLFGRLGSFPVRGTPMATRLLLCEHAEKLSAAIVLKNHHSRLSDLVNTAILIALNKREYEIPSNLTPADVFFREVSQVDTICECLLEHEEQVLRDAPMDSIEWAEVVINVNNILKDMLQAASHYRQNRNSLYRREESLEKEPEYVPWTATSGPGGIRTVIIRQHEIVLKVAYPQADSNLRNIVTEQLVALIDCFLDGYVSQLKSVDKSSNRERYDNLEMEYLQKRSDLLSPLLSLGQYLWAASLAEKYCDFDILVQMCEQTDNQSRLQRYMTQFADQNFSDFLFRWYLEKGKRGKLLSQPISQHGQLANFLQAHEHLSWLHEINSQELEKAHATLLGLANMETRYFAKKKTLLGLSKLAALASDFSEDMLQEKIEEMAEQERFLLHQETLPEQLLAEKQLNLSAMPVLTAPQLIGLYICEENRRANEYDFKKALDLLEYIDEEEDININDLKLEILCKALQRDNWSSSDGKDDPIEVSKDSIFVKILQKLLKDGIQLSEYLPEVKDLLQADQLGSLKSNPYFEFVLKANYEYYVQGQI [NUP133]”, the “solubility in G1/S (log2)” value in the series on HeLa Kyoto [1] is -0.454. Moreover, the melting temperature in the series on HeLa Kyoto [2] (cell cycle stage: G1/S) worked out at 51.9 °C; in the series with HeLa Kyoto [2] (cell cycle stage: mitosis) it was 49.6 °C. Besides, in the series on HeLa Kyoto [3], the “solubility change mitosis (log2)” value turned out to be 0.284. The results for the thermal stability score in the series with HeLa Kyoto [4] (setting [5]) and with HeLa Kyoto [4] (cell cycle stage: mitosis) were -2.95 and -2.97, respectively.

Turning to “MAPSGSLAVPLAVLVLLLWGAPWTHGRRSNVRVITDENWRELLEGDWMIEFYAPWCPACQNLQPEWESFAEWGEDLEVNIAKVDVTEQPGLSGRFIITALPTIYHCKDGEFRRYQGPRTKKDFINFISDKEWKSIEPVSSWFGPGSVLMSSMSALFQLSMWIRTCHNYFIEDLGLPVWGSYTVFALATLFSGLLLGLCMIFVADCLCPSKRRRPQPYPYPSKKLLSESAQPLKKVEEEQEADEEDVSEEEAESKEGTNKDFPQNAIRQRSLGPSLATDKS [TMX1]”, in the series on HeLa Kyoto [1], the “solubility in G1/S (log2)” value was -0.0895. For the same substance, the melting temperature in the series on HeLa Kyoto [2] (cell cycle stage: G1/S) amounted to 54.7 °C; in the series with HeLa Kyoto [2] (cell cycle stage: mitosis), 55.9 °C. Also, the “solubility change mitosis (log2)” value in the series on HeLa Kyoto [3] is -0.034. In addition, the values for the thermal stability score with HeLa Kyoto [4] (setting [5]) and in the series on HeLa Kyoto [4] (cell cycle stage: mitosis) were 0.556 and 1.24, respectively.

For the substance “MAALRVLLSCVRGPLRPPVRCPAWRPFASGANFEYIIAEKRGKNNTVGLIQLNRPKALNALCDGLIDELNQALKTFEEDPAVGAIVLTGGDKAFAAGADIKEMQNLSFQDCYSSKFLKHWDHLTQVKKPVIAAVNGYAFGGGCELAMMCDIIYAGEKAQFAQPEILIGTIPGAGGTQRLTRAVGKSLAMEMVLTGDRISAQDAKQAGLVSKICPVETLVEEAIQCAEKIASNSKIVVAMAKESVNAAFEMTLTEGSKLEKKLFYSTFATDDRKEGMTAFVEKRKANFKDQ [ECHS1]”, the “solubility in G1/S (log2)” value in the series on HeLa Kyoto [1] was 0.518. For the same substance, the results for the melting temperature in the series with HeLa Kyoto [2] (cell cycle stage: G1/S) and with HeLa Kyoto [2] (cell cycle stage: mitosis) were 52.8 °C and 53.3 °C, respectively. For the same substance, in the series on HeLa Kyoto [3], the “solubility change mitosis (log2)” value stood at 0.0593. Also, the thermal stability score in the series with HeLa Kyoto [4] (setting [5]) was -1.11; in the series on HeLa Kyoto [4] (cell cycle stage: mitosis), -1.89.
